Measurements: patent US20260216242A1 (ALMAC DISCOVERY, published 2026)

T1: human ALPI on CHO cells (human, UniProt P09923 20-503)
T1 construct: whole, on cells; also called CHO-ALPI
T1 sequence (looked up): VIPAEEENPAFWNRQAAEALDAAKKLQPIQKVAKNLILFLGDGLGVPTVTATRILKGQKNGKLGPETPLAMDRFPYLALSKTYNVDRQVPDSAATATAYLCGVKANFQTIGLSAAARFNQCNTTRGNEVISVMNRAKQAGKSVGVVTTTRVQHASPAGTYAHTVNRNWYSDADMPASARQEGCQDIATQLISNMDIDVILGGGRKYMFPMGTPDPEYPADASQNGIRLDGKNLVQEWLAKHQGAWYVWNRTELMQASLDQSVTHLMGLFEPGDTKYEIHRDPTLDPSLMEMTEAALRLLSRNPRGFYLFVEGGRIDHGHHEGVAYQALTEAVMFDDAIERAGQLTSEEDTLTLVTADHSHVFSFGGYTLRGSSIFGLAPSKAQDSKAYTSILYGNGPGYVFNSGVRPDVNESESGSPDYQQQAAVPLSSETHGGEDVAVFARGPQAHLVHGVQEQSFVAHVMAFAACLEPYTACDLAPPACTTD

T2: human ALPL on CHO cells (human, UniProt P05186 18-501)
T2 construct: whole, on cells; also called CHO-ALPL
T2 sequence (looked up): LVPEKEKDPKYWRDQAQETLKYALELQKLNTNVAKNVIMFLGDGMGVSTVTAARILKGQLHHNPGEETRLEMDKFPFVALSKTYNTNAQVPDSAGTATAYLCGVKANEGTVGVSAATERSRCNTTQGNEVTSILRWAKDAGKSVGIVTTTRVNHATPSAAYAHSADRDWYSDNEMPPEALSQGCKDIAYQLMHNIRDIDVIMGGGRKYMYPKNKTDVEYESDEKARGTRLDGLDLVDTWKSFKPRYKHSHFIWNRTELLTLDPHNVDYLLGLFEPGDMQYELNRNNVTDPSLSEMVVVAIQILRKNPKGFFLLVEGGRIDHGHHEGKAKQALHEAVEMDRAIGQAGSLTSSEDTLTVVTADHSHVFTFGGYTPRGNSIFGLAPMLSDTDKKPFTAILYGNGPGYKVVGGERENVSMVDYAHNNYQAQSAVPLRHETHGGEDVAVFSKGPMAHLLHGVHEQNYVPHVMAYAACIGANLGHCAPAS


What was measured:
human ALPI on CHO cells = biological target: T1, human ALPI on CHO cells; experiment: flow cytometry, CHO cells stably expressing human ALPI; PDC detected with FITC anti-human Ab
Experimental: (§1) Biparatopic VHH-hFc drug conjugates were assessed for human ALPP, ALPPL2, ALPI and ALPL cell-surface binding by flow cytometry. Binders were screened on CHO cells stably expressing human ALPP, ALPPL2, ALPI or ALPL.
(§2) Cell surface binding of test agents to hALPP isoforms was characterized in four CHO-ALPP isoform transfectant cell lines (CHO-ALPP, CHO-ALPPL2, CHO-ALPI and CHO-ALPL) and the resulting KDapp values determined. Adherent cells were detached from tissue culture flasks by incubating with 0.1% EDTA/PBS solution at 37° C. for […] or until cells detached easily. Cells were re-suspended in ice-cold PBS/2% FCS in 15 ml tubes and centrifuged at 1700 rpm for 5 mins at 4° C. Supernatant was removed and the cell pellet re-suspended in PBS/2% FCS. […] Cells were incubated with 100 μl of test agents at a range of concentrations, plus controls for 1 hr on ice. The sample plate was centrifuged at 1700 rpm for 5 mins at 4° C. The supernatant was removed, and a wash performed by re-suspending the cell pellets in 0.25 mL of ice-cold PBS/2% FCS using a multichannel pipette. Samples were again centrifuged at 1700 rpm for 5 min at 4° C. Supernatant was removed and two further washes performed as described. After the final wash and centrifugation step, excess liquid was removed by blotting the plate on tissue paper. Binding of VHH-hFc agents was determined by adding 100 μl of Fitc-anti-human Ab (ThermoFisher) and incubating for 30 mins on ice in the dark. Wash steps were performed as described previously. All cell pellets were finally re-suspended in 0.28 ml of ice-cold PBS/2% FCS and left on ice in the dark prior to analysis on a Merck-Millipore Guava EasyCyte HT or Thermo Fisher Attune N×T flow cytometer.

human ALPL on CHO cells = biological target: T2, human ALPL on CHO cells; experiment: flow cytometry, CHO cells stably expressing human ALPL; PDC detected with FITC anti-human Ab
Experimental: as §1, §2

Binder | binding result (human ALPI on CHO cells) | binding result (human ALPL on CHO cells)
D10-E10 hFc-vcPAB-MMAE [G4S]3 (Fc fusion, DAR 4, MC-vc-PAB-MMAE on Cys 239 and Cys 442 (EU numbering), Biparatopic drug conjugate, DAR 4) chain 1: QVQLVESGGGLVQPGGSLRLSCAASGSIFSVNTMGWYRQAPGKQRDLVAVATSGGTIHYADSVKGRFTISRDNAKNTVYLQMNSLKPEDTAVYYCNLVVPYGMIAGDHDYWGQGTKVTVSSGGGGSGGGGSGGGGSEPKSSDKTHTCPPCPAPELLGGPCVFLFPPKPKDTLMISRTPEVTCVVVDVSHEDPEVKFNWYVDGVEVHNAKTKPREEQYNSTYRVVSVLTVLHQDWLNGKEYKCKVSNKALPAPIEKTISKAKGQPREPQVYTLPPSRDELTKNQVSLYCLVKGFYPSDIAVEWESNGQPENNYKTTPPVLDSDGSFFLYSKLTVDKSRWQQGNVFSCSVMHEALHNHYTQKSLCLSPGK chain 2: QVQLVESGGGLVQAGGSLRLSCAVSGRALSDYNIGWFRQAPGKEREFVARKTWDGSSTRYDDSVKGRFTVSIEDAKNTAYLQMSSLKTEDTAVYYCAAGRYSRARGWEYDYWGQGTQVTVSSGGGGSGGGGSGGGGSEPKSSDKTHTCPPCPAPELLGGPCVFLFPPKPKDTLMISRTPEVTCVVVDVSHEDPEVKFNWYVDGVEVHNAKTKPREEQYNSTYRVVSVLTVLHQDWLNGKEYKCKVSNKALPAPIEKTISKAKGQPREPQVYTLPPSRDELTKNQVSLTCLVKGFYPSDIAVEWESNGQPENNYKTTPPVLDSDGSFFLTSKLTVDKSRWQQGNVFSCSVMHEALHNHYTQKSLCLSPGK | no binding (tested: 350 nM) | no binding (tested: 350 nM)
D10-E06-hFc-vcPAB-MMAE [G4S]1 (Fc fusion, DAR 4, MC-vc-PAB-MMAE on Cys 239 and Cys 442 (EU numbering), Biparatopic drug conjugate, DAR 4) chain 1: QVQLVESGGGLVQPGGSLRLSCAASGSIFSVNTMGWYRQAPGKQRDLVAVATSGGTIHYADSVKGRFTISRDNAKNTVYLQMNSLKPEDTAVYYCNLVVPYGMIAGDHDYWGQGTKVTVSSGGGGSEPKSSDKTHTCPPCPAPELLGGPCVFLFPPKPKDTLMISRTPEVTCVVVDVSHEDPEVKFNWYVDGVEVHNAKTKPREEQYNSTYRVVSVLTVLHQDWLNGKEYKCKVSNKALPAPIEKTISKAKGQPREPQVYTLPPSRDELTKNQVSLYCLVKGFYPSDIAVEWESNGQPENNYKTTPPVLDSDGSFFLYSKLTVDKSRWQQGNVFSCSVMHEALHNHYTQKSLCLSPGK chain 2: QVHLVESGGGLVQAGGSLRLSCAASRRSFSEYAMGWFRQAPGKEREFVAAIGWSGVIEYADSVKGRFTISRDNAKDTVYLQMNSLKPEDTAVYYCAAGLGIRVVSQTPAYWGQGTQVTVSSGGGGSEPKSSDKTHTCPPCPAPELLGGPCVFLFPPKPKDTLMISRTPEVTCVVVDVSHEDPEVKFNWYVDGVEVHNAKTKPREEQYNSTYRVVSVLTVLHQDWLNGKEYKCKVSNKALPAPIEKTISKAKGQPREPQVYTLPPSRDELTKNQVSLTCLVKGFYPSDIAVEWESNGQPENNYKTTPPVLDSDGSFFLTSKLTVDKSRWQQGNVFSCSVMHEALHNHYTQKSLCLSPGK | no binding (tested: 350 nM) | no binding (tested: 350 nM)
D10-E10-hFc-vcPAB-MMAE [G4S]1 (Fc fusion, DAR 4, MC-vc-PAB-MMAE on Cys 239 and Cys 442 (EU numbering), Biparatopic drug conjugate, DAR 4) chain 1: QVQLVESGGGLVQPGGSLRLSCAASGSIFSVNTMGWYRQAPGKQRDLVAVATSGGTIHYADSVKGRFTISRDNAKNTVYLQMNSLKPEDTAVYYCNLVVPYGMIAGDHDYWGQGTKVTVSSGGGGSEPKSSDKTHTCPPCPAPELLGGPCVFLFPPKPKDTLMISRTPEVTCVVVDVSHEDPEVKFNWYVDGVEVHNAKTKPREEQYNSTYRVVSVLTVLHQDWLNGKEYKCKVSNKALPAPIEKTISKAKGQPREPQVYTLPPSRDELTKNQVSLYCLVKGFYPSDIAVEWESNGQPENNYKTTPPVLDSDGSFFLYSKLTVDKSRWQQGNVFSCSVMHEALHNHYTQKSLCLSPGK chain 2: QVQLVESGGGLVQAGGSLRLSCAVSGRALSDYNIGWFRQAPGKEREFVARKTWDGSSTRYDDSVKGRFTVSIEDAKNTAYLQMSSLKTEDTAVYYCAAGRYSRARGWEYDYWGQGTQVTVSSGGGGSEPKSSDKTHTCPPCPAPELLGGPCVFLFPPKPKDTLMISRTPEVTCVVVDVSHEDPEVKFNWYVDGVEVHNAKTKPREEQYNSTYRVVSVLTVLHQDWLNGKEYKCKVSNKALPAPIEKTISKAKGQPREPQVYTLPPSRDELTKNQVSLTCLVKGFYPSDIAVEWESNGQPENNYKTTPPVLDSDGSFFLTSKLTVDKSRWQQGNVFSCSVMHEALHNHYTQKSLCLSPGK | no binding (tested: 350 nM) | no binding (tested: 350 nM)

Results, then the binder that gave them:

binding result (human ALPI on CHO cells) | binding result (human ALPL on CHO cells) | Binder
no binding (tested: 350 nM) | no binding (tested: 350 nM) | D10-F05 hFc-vcPAB-MMAE [G4S]3 (Fc fusion, DAR 4, MC-vc-PAB-MMAE on Cys 239 and Cys 442 (EU numbering), Biparatopic drug conjugate, DAR 4; also called #637) chain 1: QVQLVESGGGLVQPGGSLRLSCAASGSIFSVNTMGWYRQAPGKQRDLVAVATSGGTIHYADSVKGRFTISRDNAKNTVYLQMNSLKPEDTAVYYCNLVVPYGMIAGDHDYWGQGTKVTVSSGGGGSGGGGSGGGGSEPKSSDKTHTCPPCPAPELLGGPCVFLFPPKPKDTLMISRTPEVTCVVVDVSHEDPEVKFNWYVDGVEVHNAKTKPREEQYNSTYRVVSVLTVLHQDWLNGKEYKCKVSNKALPAPIEKTISKAKGQPREPQVYTLPPSRDELTKNQVSLYCLVKGFYPSDIAVEWESNGQPENNYKTTPPVLDSDGSFFLYSKLTVDKSRWQQGNVFSCSVMHEALHNHYTQKSLCLSPGK chain 2: QVQLVESGGGLVQAGGSLRLSCAASGRAFGDYNIGWFRQAPGKEREFVARRTWDGSSTRYDDSVKGRFTVSIDNAKNTAYLQMNSLKTEDTAVYYCAAGRYSRVRGWEYDYWGQGTQVTVSSGGGGSGGGGSGGGGSEPKSSDKTHTCPPCPAPELLGGPCVFLFPPKPKDTLMISRTPEVTCVVVDVSHEDPEVKFNWYVDGVEVHNAKTKPREEQYNSTYRVVSVLTVLHQDWLNGKEYKCKVSNKALPAPIEKTISKAKGQPREPQVYTLPPSRDELTKNQVSLTCLVKGFYPSDIAVEWESNGQPENNYKTTPPVLDSDGSFFLTSKLTVDKSRWQQGNVFSCSVMHEALHNHYTQKSLCLSPGK
no binding (tested: 350 nM) | no binding (tested: 350 nM) | D10-F05-hFc-vcPAB-MMAE [G4S]1 (Fc fusion, DAR 4, MC-vc-PAB-MMAE on Cys 239 and Cys 442 (EU numbering), Biparatopic drug conjugate, DAR 4; also called #679) chain 1: QVQLVESGGGLVQPGGSLRLSCAASGSIFSVNTMGWYRQAPGKQRDLVAVATSGGTIHYADSVKGRFTISRDNAKNTVYLQMNSLKPEDTAVYYCNLVVPYGMIAGDHDYWGQGTKVTVSSGGGGSEPKSSDKTHTCPPCPAPELLGGPCVFLFPPKPKDTLMISRTPEVTCVVVDVSHEDPEVKFNWYVDGVEVHNAKTKPREEQYNSTYRVVSVLTVLHQDWLNGKEYKCKVSNKALPAPIEKTISKAKGQPREPQVYTLPPSRDELTKNQVSLYCLVKGFYPSDIAVEWESNGQPENNYKTTPPVLDSDGSFFLYSKLTVDKSRWQQGNVFSCSVMHEALHNHYTQKSLCLSPGK chain 2: QVQLVESGGGLVQAGGSLRLSCAASGRAFGDYNIGWFRQAPGKEREFVARRTWDGSSTRYDDSVKGRFTVSIDNAKNTAYLQMNSLKTEDTAVYYCAAGRYSRVRGWEYDYWGQGTQVTVSSGGGGSEPKSSDKTHTCPPCPAPELLGGPCVFLFPPKPKDTLMISRTPEVTCVVVDVSHEDPEVKFNWYVDGVEVHNAKTKPREEQYNSTYRVVSVLTVLHQDWLNGKEYKCKVSNKALPAPIEKTISKAKGQPREPQVYTLPPSRDELTKNQVSLTCLVKGFYPSDIAVEWESNGQPENNYKTTPPVLDSDGSFFLTSKLTVDKSRWQQGNVFSCSVMHEALHNHYTQKSLCLSPGK
